{
  "source": "patent US6863885B2",
  "about": "“Method of decreasing radiation or radio-mimetic chemotherapy for hematopoietic pluripotent cell engraftment” (The United States of America as represented by the …, priority 1995, dated 2005)",
  "tested_on": "engraftment of donor Sca-1+ HPCs (donor Ly5.2 cells among recipient PBMCs)",
  "experiment": "Cytokine pre-conditioning effect on short term engraftment of donor Sca-1+ HPCs after 200 cGy radiation",
  "type": "in vivo, C57BL/6-Ly-5.1-Pep3b mice",
  "settings": "mice",
  "procedure": "FIG. 1 is a bar graph showing the cytokine hematopoietic growth factor pretreatment conditioning effect on engraftment of HPCs following 200 cGy radiation in mice, one month after transplantation. Recipient C57BL/6J-Ly-5.1-Pep^3b mice received b.i.d. sc injections of PBS (□) 0.1% BSA, 4 μg rhGCSF (□) in 0.1% BSA, or 4 μg rhGCSF plus 1.0 μg rmSCF(▪) in 0.1% BSA (R&D Systems, Minneapolis, Minn.) for four days. On the fifth day, mice received a single sc injection followed one hour later by a 200 cGy radiation dose. Four hours after irradiation, all mice received 0.5×10^6 Sca-1+BM cells via tail vein injection. Mice were bled 1 month after BMT and PB was analyzed for engraftment. […] The data represent three experiments in series with 2 mice per condition in each experiment. All animals survived this procedure.\nThe data which forms the basis of the present invention concerns the enhanced in vivo transfer of purified SCA-1+bone marrow derived HPCs using congenic C57BL/6 mice, which differ only at the Ly5 locus. The origin of a cell is detectable by immunoreactivity with either anti-Ly5.1 or anti-Ly5.2 antibodies by FACS of PBMCs. […] Using this system, the effects of pre-transplantation cytokine conditioning on short term engraftment, defined as the percentage of total PBMCs in the recipient that were donor Ly5.2 cells, measured one month after transplantation, have been determined. […]",
  "data": [
    {"molecule": "rhGCSF: recombinant human granulocyte colony stimulating factor (R&D Systems), 4 μg in 0.1% BSA (protein, UniProt P09919 31-207, looked up) Granulocyte …: TPLGPASSLPQSFLLKCLEQVRKIQGDGAALQEKLVSECATYKLCHPEELVLLGHSLGIPWAPLSSCPSQALQLAGCLSQLHSGLFLYQGLLQALEGISPELGPTLDTLQLDVADFATTIWQQMEELGMAPALQPTQGAMPAFASAFQRRAGGVLVASHLQSFLEVSYRVLRHLAQP", "values": [
      {"measurement": "engraftment (percentage of total PBMCs in the recipient that were donor Ly5.2 cells)", "setting": "b.i.d. sc for four days plus final injection on day 5, 0.5×10^6 Sca-1+ cells iv, measured one month after transplantation", "value": 18.9, "unit": "%"},
      {"measurement": "fold increase in engraftment compared with control", "setting": "one month after transplantation, versus vehicle control (0.1% BSA), p<0.01", "value": "at least a three fold increase"}
    ]}
  ]
}
